Reference: US20180071366A1
Numbered stars: 1 amine (or outer) side, 2 acyl side, 3 side chain; on linkers, the order of the positions; unused ones are H or OH. Bridge positions count the residues as written; N and C are the ends. Square brackets hold non-standard residues; d marks the D form. * marks the point of attachment. C20 diacid = O=C(O)CCCCCCCCCCCCCCCCCCC(=O)*; γGlu = O=C(O)[C@H](CCC(=O)[*:2])N[*:1]; Hyp = O=C(O)[C@@H]1C[C@@H](O)CN1; NMeI = CC[C@H](C)[C@H](NC)C(=O)O; Aad = N[C@@H](CCCC(=O)O)C(=O)O; Orn = NCCC[C@H](N)C(=O)O; Sar = CNCC(=O)O

B1: Ref. 2 (peptide)
peptide: {C20 diacid-γGlu}-RCGTATCATERLAHFLQRSSF[Sar]A[NMeI]LSSTEVGSNT[Hyp]-NH2
modifications: disulfide 2-7
SMILES: CC[C@H](C)[C@@H](C(=O)N[C@@H](CC(C)C)C(=O)N[C@@H](CO)C(=O)N[C@@H](CO)C(=O)N[C@H](C(=O)N[C@@H](CCC(=O)O)C(=O)N[C@H](C(=O)NCC(=O)N[C@@H](CO)C(=O)N[C@@H](CC(N)=O)C(=O)N[C@H](C(=O)N1C[C@H](O)C[C@H]1C(N)=O)[C@@H](C)O)C(C)C)[C@@H](C)O)N(C)C(=O)[C@H](C)NC(=O)CN(C)C(=O)[C@H](Cc1ccccc1)NC(=O)[C@H](CO)NC(=O)[C@H](CO)NC(=O)[C@H](CCCNC(=N)N)NC(=O)[C@H](CCC(N)=O)NC(=O)[C@H](CC(C)C)NC(=O)[C@H](Cc1ccccc1)NC(=O)[C@H](Cc1c[nH]cn1)NC(=O)[C@H](C)NC(=O)[C@H](CC(C)C)NC(=O)[C@H](CCCNC(=N)N)NC(=O)[C@H](CCC(=O)O)NC(=O)[C@@H](NC(=O)[C@H](C)NC(=O)[C@@H]1CSSC[C@H](NC(=O)[C@H](CCCNC(=N)N)NC(=O)CC[C@H](NC(=O)CCCCCCCCCCCCCCCCCCC(=O)O)C(=O)O)C(=O)NCC(=O)N[C@@H]([C@@H](C)O)C(=O)N[C@@H](C)C(=O)N[C@@H]([C@@H](C)O)C(=O)N1)[C@@H](C)O
B2: Ref. 4 (peptide)
peptide: {C20 diacid-γGlu}-RCGTATCATERLA[Aad]FLQRSSF[Sar]A[NMeI]LSSTEVGSNT[Hyp]-NH2
modifications: disulfide 2-7
SMILES: CC[C@H](C)[C@@H](C(=O)N[C@@H](CC(C)C)C(=O)N[C@@H](CO)C(=O)N[C@@H](CO)C(=O)N[C@H](C(=O)N[C@@H](CCC(=O)O)C(=O)N[C@H](C(=O)NCC(=O)N[C@@H](CO)C(=O)N[C@@H](CC(N)=O)C(=O)N[C@H](C(=O)N1C[C@H](O)C[C@H]1C(N)=O)[C@@H](C)O)C(C)C)[C@@H](C)O)N(C)C(=O)[C@H](C)NC(=O)CN(C)C(=O)[C@H](Cc1ccccc1)NC(=O)[C@H](CO)NC(=O)[C@H](CO)NC(=O)[C@H](CCCNC(=N)N)NC(=O)[C@H](CCC(N)=O)NC(=O)[C@H](CC(C)C)NC(=O)[C@H](Cc1ccccc1)NC(=O)[C@H](CCCC(=O)O)NC(=O)[C@H](C)NC(=O)[C@H](CC(C)C)NC(=O)[C@H](CCCNC(=N)N)NC(=O)[C@H](CCC(=O)O)NC(=O)[C@@H](NC(=O)[C@H](C)NC(=O)[C@@H]1CSSC[C@H](NC(=O)[C@H](CCCNC(=N)N)NC(=O)CC[C@H](NC(=O)CCCCCCCCCCCCCCCCCCC(=O)O)C(=O)O)C(=O)NCC(=O)N[C@@H]([C@@H](C)O)C(=O)N[C@@H](C)C(=O)N[C@@H]([C@@H](C)O)C(=O)N1)[C@@H](C)O
B3: Compound 8 (peptide)
peptide: {C20 diacid-γGlu}-RDGTAT[Orn]ATQRLAHFLQRSSF[Sar]A[NMeI]LSSTEVGSNT[Hyp]-NH2
modifications: lactam 2-7
SMILES: CC[C@H](C)[C@@H](C(=O)N[C@@H](CC(C)C)C(=O)N[C@@H](CO)C(=O)N[C@@H](CO)C(=O)N[C@H](C(=O)N[C@@H](CCC(=O)O)C(=O)N[C@H](C(=O)NCC(=O)N[C@@H](CO)C(=O)N[C@@H](CC(N)=O)C(=O)N[C@H](C(=O)N1C[C@H](O)C[C@H]1C(N)=O)[C@@H](C)O)C(C)C)[C@@H](C)O)N(C)C(=O)[C@H](C)NC(=O)CN(C)C(=O)[C@H](Cc1ccccc1)NC(=O)[C@H](CO)NC(=O)[C@H](CO)NC(=O)[C@H](CCCNC(=N)N)NC(=O)[C@H](CCC(N)=O)NC(=O)[C@H](CC(C)C)NC(=O)[C@H](Cc1ccccc1)NC(=O)[C@H](Cc1c[nH]cn1)NC(=O)[C@H](C)NC(=O)[C@H](CC(C)C)NC(=O)[C@H](CCCNC(=N)N)NC(=O)[C@H](CCC(N)=O)NC(=O)[C@@H](NC(=O)[C@H](C)NC(=O)[C@@H]1CCCNC(=O)C[C@H](NC(=O)[C@H](CCCNC(=N)N)NC(=O)CC[C@H](NC(=O)CCCCCCCCCCCCCCCCCCC(=O)O)C(=O)O)C(=O)NCC(=O)N[C@@H]([C@@H](C)O)C(=O)N[C@@H](C)C(=O)N[C@@H]([C@@H](C)O)C(=O)N1)[C@@H](C)O
B4: Ref. 3 (peptide)
peptide: {C20 diacid-γGlu}-RDGTAT[Orn]ATERLA[Aad]FLQRSSF[Sar]A[NMeI]LSSTEVGSNT[Hyp]-NH2
SMILES: CC[C@H](C)[C@@H](C(=O)N[C@@H](CC(C)C)C(=O)N[C@@H](CO)C(=O)N[C@@H](CO)C(=O)N[C@H](C(=O)N[C@@H](CCC(=O)O)C(=O)N[C@H](C(=O)NCC(=O)N[C@@H](CO)C(=O)N[C@@H](CC(N)=O)C(=O)N[C@H](C(=O)N1C[C@H](O)C[C@H]1C(N)=O)[C@@H](C)O)C(C)C)[C@@H](C)O)N(C)C(=O)[C@H](C)NC(=O)CN(C)C(=O)[C@H](Cc1ccccc1)NC(=O)[C@H](CO)NC(=O)[C@H](CO)NC(=O)[C@H](CCCNC(=N)N)NC(=O)[C@H](CCC(N)=O)NC(=O)[C@H](CC(C)C)NC(=O)[C@H](Cc1ccccc1)NC(=O)[C@H](CCCC(=O)O)NC(=O)[C@H](C)NC(=O)[C@H](CC(C)C)NC(=O)[C@H](CCCNC(=N)N)NC(=O)[C@H](CCC(=O)O)NC(=O)[C@@H](NC(=O)[C@H](C)NC(=O)[C@H](CCCN)NC(=O)[C@@H](NC(=O)[C@H](C)NC(=O)[C@@H](NC(=O)CNC(=O)[C@H](CC(=O)O)NC(=O)[C@H](CCCNC(=N)N)NC(=O)CC[C@H](NC(=O)CCCCCCCCCCCCCCCCCCC(=O)O)C(=O)O)[C@@H](C)O)[C@@H](C)O)[C@@H](C)O
B5: Compound 7 (peptide)
peptide: {C20 diacid-γGlu}-RDGTAT[Orn]ATERLAHFLHRSSF[Sar]A[NMeI]LSSTEVGSNTP-NH2
modifications: lactam 2-7
SMILES: CC[C@H](C)[C@@H](C(=O)N[C@@H](CC(C)C)C(=O)N[C@@H](CO)C(=O)N[C@@H](CO)C(=O)N[C@H](C(=O)N[C@@H](CCC(=O)O)C(=O)N[C@H](C(=O)NCC(=O)N[C@@H](CO)C(=O)N[C@@H](CC(N)=O)C(=O)N[C@H](C(=O)N1CCC[C@H]1C(N)=O)[C@@H](C)O)C(C)C)[C@@H](C)O)N(C)C(=O)[C@H](C)NC(=O)CN(C)C(=O)[C@H](Cc1ccccc1)NC(=O)[C@H](CO)NC(=O)[C@H](CO)NC(=O)[C@H](CCCNC(=N)N)NC(=O)[C@H](Cc1c[nH]cn1)NC(=O)[C@H](CC(C)C)NC(=O)[C@H](Cc1ccccc1)NC(=O)[C@H](Cc1c[nH]cn1)NC(=O)[C@H](C)NC(=O)[C@H](CC(C)C)NC(=O)[C@H](CCCNC(=N)N)NC(=O)[C@H](CCC(=O)O)NC(=O)[C@@H](NC(=O)[C@H](C)NC(=O)[C@@H]1CCCNC(=O)C[C@H](NC(=O)[C@H](CCCNC(=N)N)NC(=O)CC[C@H](NC(=O)CCCCCCCCCCCCCCCCCCC(=O)O)C(=O)O)C(=O)NCC(=O)N[C@@H]([C@@H](C)O)C(=O)N[C@@H](C)C(=O)N[C@@H]([C@@H](C)O)C(=O)N1)[C@@H](C)O
B6: Compound 6 (peptide)
peptide: {C20 diacid-γGlu}-RDGTAT[Orn]ATERLAHFLQRF[Sar]A[NMeI]LSSTEVGSNT[Hyp]-NH2
modifications: lactam 2-7
SMILES: CC[C@H](C)[C@@H](C(=O)N[C@@H](CC(C)C)C(=O)N[C@@H](CO)C(=O)N[C@@H](CO)C(=O)N[C@H](C(=O)N[C@@H](CCC(=O)O)C(=O)N[C@H](C(=O)NCC(=O)N[C@@H](CO)C(=O)N[C@@H](CC(N)=O)C(=O)N[C@H](C(=O)N1C[C@H](O)C[C@H]1C(N)=O)[C@@H](C)O)C(C)C)[C@@H](C)O)N(C)C(=O)[C@H](C)NC(=O)CN(C)C(=O)[C@H](Cc1ccccc1)NC(=O)[C@H](CCCNC(=N)N)NC(=O)[C@H](CCC(N)=O)NC(=O)[C@H](CC(C)C)NC(=O)[C@H](Cc1ccccc1)NC(=O)[C@H](Cc1c[nH]cn1)NC(=O)[C@H](C)NC(=O)[C@H](CC(C)C)NC(=O)[C@H](CCCNC(=N)N)NC(=O)[C@H](CCC(=O)O)NC(=O)[C@@H](NC(=O)[C@H](C)NC(=O)[C@@H]1CCCNC(=O)C[C@H](NC(=O)[C@H](CCCNC(=N)N)NC(=O)CC[C@H](NC(=O)CCCCCCCCCCCCCCCCCCC(=O)O)C(=O)O)C(=O)NCC(=O)N[C@@H]([C@@H](C)O)C(=O)N[C@@H](C)C(=O)N[C@@H]([C@@H](C)O)C(=O)N1)[C@@H](C)O
B7: Compound 9 (peptide)
peptide: {C20 diacid-γGlu}-RDGTAT[Orn]ATQRLAHFLQRSSF[Sar]A[NMeI]PSSTEVGSNT[Hyp]-NH2
modifications: lactam 2-7
SMILES: CC[C@H](C)[C@@H](C(=O)N1CCC[C@H]1C(=O)N[C@@H](CO)C(=O)N[C@@H](CO)C(=O)N[C@H](C(=O)N[C@@H](CCC(=O)O)C(=O)N[C@H](C(=O)NCC(=O)N[C@@H](CO)C(=O)N[C@@H](CC(N)=O)C(=O)N[C@H](C(=O)N1C[C@H](O)C[C@H]1C(N)=O)[C@@H](C)O)C(C)C)[C@@H](C)O)N(C)C(=O)[C@H](C)NC(=O)CN(C)C(=O)[C@H](Cc1ccccc1)NC(=O)[C@H](CO)NC(=O)[C@H](CO)NC(=O)[C@H](CCCNC(=N)N)NC(=O)[C@H](CCC(N)=O)NC(=O)[C@H](CC(C)C)NC(=O)[C@H](Cc1ccccc1)NC(=O)[C@H](Cc1c[nH]cn1)NC(=O)[C@H](C)NC(=O)[C@H](CC(C)C)NC(=O)[C@H](CCCNC(=N)N)NC(=O)[C@H](CCC(N)=O)NC(=O)[C@@H](NC(=O)[C@H](C)NC(=O)[C@@H]1CCCNC(=O)C[C@H](NC(=O)[C@H](CCCNC(=N)N)NC(=O)CC[C@H](NC(=O)CCCCCCCCCCCCCCCCCCC(=O)O)C(=O)O)C(=O)NCC(=O)N[C@@H]([C@@H](C)O)C(=O)N[C@@H](C)C(=O)N[C@@H]([C@@H](C)O)C(=O)N1)[C@@H](C)O

What follows are binders tested against recombinant human amylin 3 receptor (hAMYR3) (human), P30988 (assay: cell-based or functional assay).
Chain of recombinant human amylin 3 receptor (hAMYR3) (human), P30988 (P30988 25-474, chain 1 of 2): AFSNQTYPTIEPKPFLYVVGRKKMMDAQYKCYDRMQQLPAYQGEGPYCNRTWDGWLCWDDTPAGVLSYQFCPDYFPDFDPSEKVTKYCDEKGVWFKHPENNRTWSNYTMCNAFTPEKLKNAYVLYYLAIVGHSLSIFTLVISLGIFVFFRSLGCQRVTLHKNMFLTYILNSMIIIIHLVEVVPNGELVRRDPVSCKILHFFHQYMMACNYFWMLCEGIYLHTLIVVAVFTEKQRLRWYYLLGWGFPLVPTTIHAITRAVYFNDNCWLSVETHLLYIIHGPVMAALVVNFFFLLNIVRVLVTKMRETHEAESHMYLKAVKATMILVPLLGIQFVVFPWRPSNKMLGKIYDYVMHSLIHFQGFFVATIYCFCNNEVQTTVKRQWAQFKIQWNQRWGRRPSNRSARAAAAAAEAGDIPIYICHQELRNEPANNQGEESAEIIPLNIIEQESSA
Chain of recombinant human amylin 3 receptor (hAMYR3) (human), P30988 (O60896 24-148, chain 2 of 2, further chain): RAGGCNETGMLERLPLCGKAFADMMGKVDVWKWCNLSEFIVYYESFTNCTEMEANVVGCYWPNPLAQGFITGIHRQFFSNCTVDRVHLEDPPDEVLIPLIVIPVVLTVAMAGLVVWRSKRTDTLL

Binder	hAMYR3 EC50 [nM] (cAMP formation, 1321N1 cells expressing hAMYR3)
B1	0.003
B2	0.031
B3	0.059
B4	13.2
B5	0.032
B6	0.011
B7	0.013

What follows are binders tested against recombinant human calcitonin receptor (hCT-R) (human), P30988 (assay: cell-based or functional assay).
Chain of recombinant human calcitonin receptor (hCT-R) (human), P30988 (P30988 25-474): as the sequence (P30988 25-474, chain 1 of 2) above

Binder	hCT-R EC50 [nM] (cAMP formation, 1321N1 cells expressing hCT-R)
B1	0.019
B2	0.075
B3	0.129
B4	18.2
B5	0.289
B6	0.327
B7	0.027
